From patent US20240066131A1 (Protagonist Therapeutics, Inc., priority 2020, published 2024)
Starred links: 1 amine or outer side, 2 acyl side, 3 side chain; linkers in the order of their positions; H or OH if unused. Non-standard residues stand in square brackets, D forms with d. Groups on a side chain read outwards from the residue. *: point of attachment. Tet2 = (S)-2-amino-4-(1H-tetrazol-5-yl)butanoic acid, O=C([C@H](CCc1nn[nH]n1)N[*:1])[*:2]; Ala(1H-tetrazol-5-yl) = N[C@@H](Cc1nnn[nH]1)C(=O)O; C18 diacid = O=C(O)CCCCCCCCCCCCCCCCC(=O)*; Dip = N[C@H](C(=O)O)C(c1ccccc1)c1ccccc1; His(τ-Me) = Cn1cnc(C[C@H](N)C(=O)O)c1; Palmitoyl = CCCCCCCCCCCCCCCC(=O)*; β3hF = N[C@H](CC(=O)O)Cc1ccccc1; His(1-Me) = 1-methylhistidine; Isovaleryl = CC(C)CC(=O)*; AEEA = NCCOCCOCC(=O)O; Ahx = NCCCCCC(=O)O

B1: Isovaleric Acid-E-T-H-[Dpa]-P-[(D)Lys]-I-[(D)Lys]-[bhPhe]-[Lys(Ahx_Palm)]-NH2 (peptide)
peptide: Isovaleryl-ETH[Dip]P[dK]I[dK][β3hF]K([Ahx-Palmitoyl])-NH2
SMILES: CCCCCCCCCCCCCCCC(=O)NCCCCCC(=O)NCCCC[C@H](NC(=O)C[C@H](Cc1ccccc1)NC(=O)[C@@H](CCCCN)NC(=O)[C@@H](NC(=O)[C@@H](CCCCN)NC(=O)[C@@H]1CCCN1C(=O)[C@@H](NC(=O)[C@H](Cc1c[nH]cn1)NC(=O)[C@@H](NC(=O)[C@H](CCC(=O)O)NC(=O)CC(C)C)[C@@H](C)O)C(c1ccccc1)c1ccccc1)[C@@H](C)CC)C(N)=O
B2: Isovaleric Acid-E-T-H-[Dpa]-P-[Lys(Ahx_Palm)]-I-[(D)Lys]-[bhPhe]-[Lys(Ac)]-NH2 (peptide)
peptide: Isovaleryl-ETH[Dip]PK([Ahx-Palmitoyl])I[dK][β3hF]K(Ac)-NH2
SMILES: CCCCCCCCCCCCCCCC(=O)NCCCCCC(=O)NCCCC[C@H](NC(=O)[C@@H]1CCCN1C(=O)[C@@H](NC(=O)[C@H](Cc1c[nH]cn1)NC(=O)[C@@H](NC(=O)[C@H](CCC(=O)O)NC(=O)CC(C)C)[C@@H](C)O)C(c1ccccc1)c1ccccc1)C(=O)N[C@H](C(=O)N[C@H](CCCCN)C(=O)N[C@H](CC(=O)N[C@@H](CCCCNC(C)=O)C(N)=O)Cc1ccccc1)[C@@H](C)CC
B3: Isovaleric Acid-E-T-H-[Dpa]-P-A-I-[Lys(1Peg2_1Peg2_Ahx_C18_Diacid-[(D)Lys]-[bhPhe]-[(D)Lys]-A-NH2 (peptide)
peptide: Isovaleryl-ETH[Dip]PAIK([AEEA-AEEA-Ahx-C18 diacid])[dK][β3hF][dK]A-NH2
SMILES: CC[C@H](C)[C@H](NC(=O)[C@H](C)NC(=O)[C@@H]1CCCN1C(=O)[C@@H](NC(=O)[C@H](Cc1c[nH]cn1)NC(=O)[C@@H](NC(=O)[C@H](CCC(=O)O)NC(=O)CC(C)C)[C@@H](C)O)C(c1ccccc1)c1ccccc1)C(=O)N[C@@H](CCCCNC(=O)COCCOCCNC(=O)COCCOCCNC(=O)CCCCCNC(=O)CCCCCCCCCCCCCCCCC(=O)O)C(=O)N[C@H](CCCCN)C(=O)N[C@H](CC(=O)N[C@H](CCCCN)C(=O)N[C@@H](C)C(N)=O)Cc1ccccc1
B4: Isovaleric Acid-E-T-H-[Dpa]-P-A-I-[(D)Lys]-A-[Lys(Ahx_Palm)]-[(D)Lys]-A-NH2 (peptide)
peptide: Isovaleryl-ETH[Dip]PAI[dK]AK([Ahx-Palmitoyl])[dK]A-NH2
SMILES: CCCCCCCCCCCCCCCC(=O)NCCCCCC(=O)NCCCC[C@H](NC(=O)[C@H](C)NC(=O)[C@@H](CCCCN)NC(=O)[C@@H](NC(=O)[C@H](C)NC(=O)[C@@H]1CCCN1C(=O)[C@@H](NC(=O)[C@H](Cc1c[nH]cn1)NC(=O)[C@@H](NC(=O)[C@H](CCC(=O)O)NC(=O)CC(C)C)[C@@H](C)O)C(c1ccccc1)c1ccccc1)[C@@H](C)CC)C(=O)N[C@H](CCCCN)C(=O)N[C@@H](C)C(N)=O
B5: Isovaleric Acid-E-A-H-[Dpa]-P-A-I-[(D)Lys]-[bhPhe]-[Lys(Ahx_Palm)]-[(D)Lys]-A-NH2 (peptide)
peptide: Isovaleryl-EAH[Dip]PAI[dK][β3hF]K([Ahx-Palmitoyl])[dK]A-NH2
SMILES: CCCCCCCCCCCCCCCC(=O)NCCCCCC(=O)NCCCC[C@H](NC(=O)C[C@H](Cc1ccccc1)NC(=O)[C@@H](CCCCN)NC(=O)[C@@H](NC(=O)[C@H](C)NC(=O)[C@@H]1CCCN1C(=O)[C@@H](NC(=O)[C@H](Cc1c[nH]cn1)NC(=O)[C@H](C)NC(=O)[C@H](CCC(=O)O)NC(=O)CC(C)C)C(c1ccccc1)c1ccccc1)[C@@H](C)CC)C(=O)N[C@H](CCCCN)C(=O)N[C@@H](C)C(N)=O
B6: Isovaleric Acid-E-T-A-[Dpa]-P-A-I-[(D)Lys]-[bhPhe]-[Lys(Ahx_Palm)]-[(D)Lys]-A-NH2 (peptide)
peptide: Isovaleryl-ETA[Dip]PAI[dK][β3hF]K([Ahx-Palmitoyl])[dK]A-NH2
SMILES: CCCCCCCCCCCCCCCC(=O)NCCCCCC(=O)NCCCC[C@H](NC(=O)C[C@H](Cc1ccccc1)NC(=O)[C@@H](CCCCN)NC(=O)[C@@H](NC(=O)[C@H](C)NC(=O)[C@@H]1CCCN1C(=O)[C@@H](NC(=O)[C@H](C)NC(=O)[C@@H](NC(=O)[C@H](CCC(=O)O)NC(=O)CC(C)C)[C@@H](C)O)C(c1ccccc1)c1ccccc1)[C@@H](C)CC)C(=O)N[C@H](CCCCN)C(=O)N[C@@H](C)C(N)=O
B7: Isovaleric Acid-[Tet1]-T-H-[Dpa]-P-A-I-[Lys(Ac)]-[bhPhe]-[(D)Lys]-A-NH2 (peptide)
peptide: Isovaleryl-[Ala(1H-tetrazol-5-yl)]TH[Dip]PAIK(Ac)[β3hF][dK]A-NH2
SMILES: CC[C@H](C)[C@H](NC(=O)[C@H](C)NC(=O)[C@@H]1CCCN1C(=O)[C@@H](NC(=O)[C@H](Cc1c[nH]cn1)NC(=O)[C@@H](NC(=O)[C@H](Cc1nnn[nH]1)NC(=O)CC(C)C)[C@@H](C)O)C(c1ccccc1)c1ccccc1)C(=O)N[C@@H](CCCCNC(C)=O)C(=O)N[C@H](CC(=O)N[C@H](CCCCN)C(=O)N[C@@H](C)C(N)=O)Cc1ccccc1
B8: Isovaleric Acid-[Tet2]-T-H-[Dpa]-P-A-I-[Lys(Ac)]-[bhPhe]-[(D)Lys]-A-NH2 (peptide)
peptide: Isovaleryl-[Tet2]TH[Dip]PAIK(Ac)[β3hF][dK]A-NH2
SMILES: CC[C@H](C)[C@H](NC(=O)[C@H](C)NC(=O)[C@@H]1CCCN1C(=O)[C@@H](NC(=O)[C@H](Cc1c[nH]cn1)NC(=O)[C@@H](NC(=O)[C@H](CCc1nn[nH]n1)NC(=O)CC(C)C)[C@@H](C)O)C(c1ccccc1)c1ccccc1)C(=O)N[C@@H](CCCCNC(C)=O)C(=O)N[C@H](CC(=O)N[C@H](CCCCN)C(=O)N[C@@H](C)C(N)=O)Cc1ccccc1
B9: Isovaleric Acid-[Tet1]-T-[(1-Me)His]-[Dpa]-P-A-I-[Lys(Ac)]-[bhPhe]-[(D)Lys]-A-NH2 (peptide)
peptide: Isovaleryl-[Ala(1H-tetrazol-5-yl)]T[His(τ-Me)][Dip]PAIK(Ac)[β3hF][dK]A-NH2
SMILES: CC[C@H](C)[C@H](NC(=O)[C@H](C)NC(=O)[C@@H]1CCCN1C(=O)[C@@H](NC(=O)[C@H](Cc1cn(C)cn1)NC(=O)[C@@H](NC(=O)[C@H](Cc1nnn[nH]1)NC(=O)CC(C)C)[C@@H](C)O)C(c1ccccc1)c1ccccc1)C(=O)N[C@@H](CCCCNC(C)=O)C(=O)N[C@H](CC(=O)N[C@H](CCCCN)C(=O)N[C@@H](C)C(N)=O)Cc1ccccc1
B10: Isovaleric Acid-[Tet2]-T-[(1-Me)His]-[Dpa]-P-A-I-[Lys(Ac)]-[bhPhe]-[(D)Lys]-NH2 (peptide)
peptide: Isovaleryl-[Tet2]T[His(τ-Me)][Dip]PAIK(Ac)[β3hF][dK]-NH2
SMILES: CC[C@H](C)[C@H](NC(=O)[C@H](C)NC(=O)[C@@H]1CCCN1C(=O)[C@@H](NC(=O)[C@H](Cc1cn(C)cn1)NC(=O)[C@@H](NC(=O)[C@H](CCc1nn[nH]n1)NC(=O)CC(C)C)[C@@H](C)O)C(c1ccccc1)c1ccccc1)C(=O)N[C@@H](CCCCNC(C)=O)C(=O)N[C@H](CC(=O)N[C@H](CCCCN)C(N)=O)Cc1ccccc1
B11: Isovaleric Acid-E-T-H-[Dpa]-P-A-I-[bhPhe]-[(D)Lys]-A-NH2 (peptide)
peptide: Isovaleryl-ETH[Dip]PAI[β3hF][dK]A-NH2
SMILES: CC[C@H](C)[C@H](NC(=O)[C@H](C)NC(=O)[C@@H]1CCCN1C(=O)[C@@H](NC(=O)[C@H](Cc1c[nH]cn1)NC(=O)[C@@H](NC(=O)[C@H](CCC(=O)O)NC(=O)CC(C)C)[C@@H](C)O)C(c1ccccc1)c1ccccc1)C(=O)N[C@H](CC(=O)N[C@H](CCCCN)C(=O)N[C@@H](C)C(N)=O)Cc1ccccc1
B12: Isovaleric Acid-[Tet1]-T-[(1-Me)His]-[Dpa]-P-A-I-[bhPhe]-[(D)Lys]-A-NH2 (peptide)
peptide: Isovaleryl-[Ala(1H-tetrazol-5-yl)]T[His(τ-Me)][Dip]PAI[β3hF][dK]A-NH2
SMILES: CC[C@H](C)[C@H](NC(=O)[C@H](C)NC(=O)[C@@H]1CCCN1C(=O)[C@@H](NC(=O)[C@H](Cc1cn(C)cn1)NC(=O)[C@@H](NC(=O)[C@H](Cc1nnn[nH]1)NC(=O)CC(C)C)[C@@H](C)O)C(c1ccccc1)c1ccccc1)C(=O)N[C@H](CC(=O)N[C@H](CCCCN)C(=O)N[C@@H](C)C(N)=O)Cc1ccccc1
B13: Isovaleric Acid-[Tet1]-T-[(1-Me)His]-[Dpa]-P-A-I-[bhPhe]-[(D)Lys]-NH2 (peptide)
peptide: Isovaleryl-[Ala(1H-tetrazol-5-yl)]T[His(τ-Me)][Dip]PAI[β3hF][dK]-NH2
SMILES: CC[C@H](C)[C@H](NC(=O)[C@H](C)NC(=O)[C@@H]1CCCN1C(=O)[C@@H](NC(=O)[C@H](Cc1cn(C)cn1)NC(=O)[C@@H](NC(=O)[C@H](Cc1nnn[nH]1)NC(=O)CC(C)C)[C@@H](C)O)C(c1ccccc1)c1ccccc1)C(=O)N[C@H](CC(=O)N[C@H](CCCCN)C(N)=O)Cc1ccccc1
B14: Isovaleric Acid-L-T-[(1Me)His]-[Dpa]-P-A-I-[Lys(Ahx_Palm)]-[bhPhe]-NH2 (peptide)
peptide: Isovaleryl-LT[His(τ-Me)][Dip]PAIK([Ahx-Palmitoyl])[β3hF]-NH2
SMILES: CCCCCCCCCCCCCCCC(=O)NCCCCCC(=O)NCCCC[C@H](NC(=O)[C@@H](NC(=O)[C@H](C)NC(=O)[C@@H]1CCCN1C(=O)[C@@H](NC(=O)[C@H](Cc1cn(C)cn1)NC(=O)[C@@H](NC(=O)[C@H](CC(C)C)NC(=O)CC(C)C)[C@@H](C)O)C(c1ccccc1)c1ccccc1)[C@@H](C)CC)C(=O)N[C@H](CC(N)=O)Cc1ccccc1

Target: T1, human ferroportin (SLC40A1) fused in frame with GFP, stably expressed in HEK293 cells (human, UniProt Q9NP59 1-571)
T1 sequence (looked up): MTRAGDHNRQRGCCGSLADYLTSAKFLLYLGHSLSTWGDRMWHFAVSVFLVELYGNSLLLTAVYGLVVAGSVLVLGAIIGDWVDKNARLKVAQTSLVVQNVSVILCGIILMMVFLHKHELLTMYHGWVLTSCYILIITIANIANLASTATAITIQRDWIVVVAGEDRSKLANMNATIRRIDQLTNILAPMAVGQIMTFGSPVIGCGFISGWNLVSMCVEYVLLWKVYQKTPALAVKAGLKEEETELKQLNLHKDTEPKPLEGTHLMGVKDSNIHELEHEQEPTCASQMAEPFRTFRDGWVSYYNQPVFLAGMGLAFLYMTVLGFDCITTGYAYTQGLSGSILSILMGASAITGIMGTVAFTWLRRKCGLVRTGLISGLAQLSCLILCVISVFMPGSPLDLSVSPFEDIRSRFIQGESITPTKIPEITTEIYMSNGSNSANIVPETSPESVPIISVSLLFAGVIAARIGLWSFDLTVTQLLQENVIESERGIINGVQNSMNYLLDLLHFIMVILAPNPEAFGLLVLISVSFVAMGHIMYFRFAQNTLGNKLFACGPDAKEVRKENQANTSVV
Assay: cell-based or functional assay

Binder | FPN EC50 [nM]
B1 | 532
B2 | 91.9
Isovaleryl-ATH[Dip]PAI[dK][β3hF]K([Ahx-Palmitoyl])-NH2 [Isovaleric Acid-A-T-H-[Dpa]-P-A-I-[(D)Lys]-[bhPhe]-[Lys(Ahx_Palm)]-NH2] | 40.6
B3 | 325
B4 | 50.6
B5 | 492
B6 | 356
Isovaleryl-ET[His(1-Me)][Dip]PAIK(Ac)[β3hF][dK]A-NH2 [Isovaleric Acid-E-T-[(1-Me)His]-[Dpa]-P-A-I-[Lys(Ac)]-[bhPhe]-[(D)Lys]-A-NH2] | > 3000
B7 | 18.9
B8 | 117
B9 | > 3000
Isovaleryl-[Tet2]T[His(τ-Me)][Dip]PAIK(Ac)[β3hF][dK]A-NH2 [Isovaleric Acid-[Tet2]-T-[(1-Me)His]-[Dpa]-P-A-I-[Lys(Ac)]-[bhPhe]-[(D)Lys]-A-NH2] | > 3000
B10 | > 3000
B11 | 915
B12 | 241
B13 | 378
B14 | > 3000
